{"source": "patent US20030190641A1", "about": "“Live cell method for observing cellular processes” (CEDARS-SINAI MEDICAL CENTER, priority 2002, published 2003)", "molecules": {"B1": {"name": "PTTG-EGFP: EGFP-tagged PTTG (pituitary tumor transforming gene product), EGFP at the C-terminus, expressed in H1299 cells by transfection (protein, UniProt O95997 2-202, looked up)", "Securin": "ATLIYVDKENGEPGTRVVAKDGLKLGSGPSIKALDGRSQVSTPRFGKTFDAPPALPKATRKALGTVNRATEKSVKTKGPLKQKQPSFSAKKMTEKTVKAKSSVPASDDAYPEIEKFFPFNPLDFESFDLPEEHQIAHLPLSGVPLMILDEERELEKLFQLGPPSPVKMPSPPWESNLLQSPSSILSTLDVELPPVCCDIDI", "modifications": "C-terminal EGFP tag", "notes": "EGFP-tagged PTTG (pituitary tumor transforming gene product), EGFP at the C-terminus, expressed in H1299 cells by transfection"}}, "key": {"[1]": {"system": "H1299 cells", "experiment": "Single, live cell imaging: destiny of mitosis (PTTG degradation, chromosome segregation, cytokinesis, aneuploidy)", "type": "cell-based, human", "description": "(§1) Human H1299 cells were grown in Dulbeccos's Modified Eagle Medium (DMEM) with 10% Fetal Bovine Serum (FBS) and transfected with Lipofectamine 2000 (obtained from Invitrogen Corporation; Carlsbad, Calif.; hereinafter “Invitrogen”). PTTG-EGFP and p55CDC-EGFP were constructed by cloning PTTG or p55CDC (obtained from Amgen, Inc.; Thousand Oaks, Calif.) into pEGFP-N3 (obtained from BD Biosciences Clontech; Palo Alto, Calif.; hereinafter “Clontech”). Non-degradable mutant PTTG-EGFP was obtained from Dr. Chris McCabe (University of Birmingham, England, UK). EGFP was at the C-terminus of PTTG or p55CDC. Cells were studied (microscopy or by Western blot) 18 to 24 hours after transfection.\n(§2) Observation of individual live cells over 48 hours or longer was performed by incubating cells in an FCS2 Closed Perfusion System (obtained from Bioptechs; Butler, Pa.). Cells were perfused with CO2-independent L15 medium (obtained from Invitrogen) supplemented with 10% FBS and penicillin/streptomycin and saturated with ambient air. Perfusion chamber temperature was set to 37° C., and cells were grown in the perfusion system for up to a week until confluency.\n(§3) The perfusion chamber was placed on an inverted fluorescence microscope (obtained from Nikon Corporation; Melville, N.Y.) and observed with a 40× extra-long working distance objective lens. Cells were observed from every few seconds to every several hours depending on the speed of cell changes. Durations of mitosis phases were determined by counting the minutes between two sequential mitotic milestones. Phase-contrast and EGFP fluorescent images were taken simultaneously at frequencies ranging from every minute (e.g., during metaphase to anaphase transition) to every few hours (e.g., after telophase), with a CCD digital camera.\n(§4) Relative fluorescence intensity was objectively determined with the application of two neutral density filters (NDFs). Each NDF reduces incident light by 50%. High fluorescence was defined when a cell was clearly visualized after application of two NDFs. Medium fluorescence was defined as a cell clearly visualized after application of one but not two NDFs. Low fluorescence was defined as a cell only visualized when neither NDF was applied.\nAs failure of PTTG degradation is associated with chromosome non-segregation, an EGFP-tagged non-degradable mutant PTTG (DM-PTTG-EGFP) was expressed in H1299 cells and chromosome segregation and cytokinesis of individual live cells observed (FIG. 6; FIG. 5A). Similar to the wild-type PTTG, DM-PTTG localizes to mitotic spindles (FIGS. 5B-5G) and chromosomes (data not shown). […] Most (51/55) cells underwent asymmetrical cytokinesis, while some cells decondensed chromosomes; macronuclei ensued in both cases. During asymmetrical cytokinesis, chromosomes and mitotic spindles were closely attached and moved to one cell pole (FIGS. 5B-5G). The cytokinesis furrow occurred roughly at the position of the distal centrosome (FIGS. 5C and 5D). Both centrosomes were retained in the daughter cell containing chromosomes (FIGS. 5E and 5F)."}, "[2]": {"system": "H1299 cells", "experiment": "Single, live cell imaging: duration of mitosis phases of cells expressing PTTG-EGFP", "type": "cell-based, human", "conditions": "18 hours after transfection", "description": "as §1, §2, §3, §4\nAs depicted in Table 1, prophase (Pro), metaphase (Meta), anaphase (Ana), and telophase (Telo) durations were recorded (in minutes) in untransfected control cells (Control), cells expressing EGFP only (EGFP), and in cells expressing PTTG-EGFP (PTTG-EGFP) 18 hours after transfection. […] For some cells expressing PTTG-EGFP, no distinct anaphase or telophase was seen because of abnormal chromosome segregation and cytokinesis."}, "[3]": {"conditions": "High expression level (fluorescence)"}, "[4]": {"conditions": "Low expression level (fluorescence)"}, "[5]": {"conditions": "Medium expression level (fluorescence)"}}}
{"molecule": "B1", "values": [{"measurement": "Cells with anaphase bridge", "setting": "[1]; 65 cells expressing PTTG-EGFP observed", "value": "2/65"}, {"measurement": "Time of degradation prior to the onset of anaphase", "setting": "[1]; cells that underwent apparently normal mitosis", "value": "about 1 minute"}, {"measurement": "Aneuploidy of daughter cells", "setting": "[1]; parent cells expressing high levels", "value": "All daughter cells"}, {"measurement": "Aneuploidy rate of daughter cells", "setting": "[1]; parent cells expressing low levels", "value": 18, "unit": "%"}, {"measurement": "Aneuploidy rate of daughter cells", "setting": "[1]; parent cells expressing medium levels", "value": 63, "unit": "%"}, {"measurement": "Duration of metaphase (Meta)", "setting": "[2]; [3]", "value": "112 ± 31", "unit": "min"}, {"measurement": "Duration of prophase (Pro)", "setting": "[2]; [3]", "value": "59 ± 7", "unit": "min"}, {"measurement": "Duration of anaphase (Ana)", "setting": "[2]; [4]", "value": "4 ± 0", "unit": "min"}, {"measurement": "Duration of metaphase (Meta)", "setting": "[2]; [4]", "value": "26 ± 4", "unit": "min"}, {"measurement": "Duration of prophase (Pro)", "setting": "[2]; [4]", "value": "25 ± 3", "unit": "min"}, {"measurement": "Duration of telophase (Telo)", "setting": "[2]; [4]", "value": "5 ± 0", "unit": "min"}, {"measurement": "Duration of anaphase (Ana)", "setting": "[2]; [5]", "value": "4 ± 0", "unit": "min"}, {"measurement": "Duration of metaphase (Meta)", "setting": "[2]; [5]", "value": "49 ± 16", "unit": "min"}, {"measurement": "Duration of prophase (Pro)", "setting": "[2]; [5]", "value": "35 ± 12", "unit": "min"}, {"measurement": "Duration of telophase (Telo)", "setting": "[2]; [5]", "value": "5 ± 0", "unit": "min"}]}
